Laboratory results: patent publication US20250228937A1, “MEDICAMENT FOR TREATMENT AND/OR PREVENTION OF CANCER” (TORAY INDUSTRIES, INC., priority 2021, published 2025)

T1: human CAPRIN-1 protein expressed on cell membrane surfaces of human cancer cells (human, UniProt Q14444 2-709)
T1 construct: whole, on cells; only a portion of CAPRIN-1 is said to be on the membrane surface
T1 sequence (looked up): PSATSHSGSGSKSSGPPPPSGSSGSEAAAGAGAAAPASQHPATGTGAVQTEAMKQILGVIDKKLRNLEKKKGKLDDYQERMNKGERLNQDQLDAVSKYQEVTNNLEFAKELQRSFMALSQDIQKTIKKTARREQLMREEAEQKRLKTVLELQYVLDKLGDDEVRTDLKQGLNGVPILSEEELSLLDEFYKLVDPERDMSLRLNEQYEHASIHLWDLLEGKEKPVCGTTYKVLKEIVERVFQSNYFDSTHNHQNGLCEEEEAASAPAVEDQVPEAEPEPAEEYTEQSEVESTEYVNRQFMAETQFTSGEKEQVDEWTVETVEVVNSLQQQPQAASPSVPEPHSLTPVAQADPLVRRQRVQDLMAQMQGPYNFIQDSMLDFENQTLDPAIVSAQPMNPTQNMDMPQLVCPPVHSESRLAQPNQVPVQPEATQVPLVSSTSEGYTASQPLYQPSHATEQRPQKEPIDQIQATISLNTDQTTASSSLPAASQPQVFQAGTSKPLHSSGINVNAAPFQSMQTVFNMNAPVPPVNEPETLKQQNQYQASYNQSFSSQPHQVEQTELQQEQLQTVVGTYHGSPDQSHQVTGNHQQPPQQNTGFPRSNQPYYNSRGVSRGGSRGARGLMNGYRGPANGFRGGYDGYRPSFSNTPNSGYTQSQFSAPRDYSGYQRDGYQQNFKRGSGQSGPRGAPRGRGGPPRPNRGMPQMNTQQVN


tested on: human breast cancer cells BT474; assay: In vivo antitumor effect of anti-CAPRIN-1 antibody and topotecan in BT474 cancer-bearing mice; parameters: species or system NOD-SCID mice; conditions: day 56 after bearing cancer; antibody 10 mg/kg, topotecan low (3 mg/kg) and high (10 mg/kg) dose
Protocol: An in vivo antitumor effect in a cancer-bearing mouse by a combined use of the anti-CAPRIN-1 antibody (anti-CAPRIN-1 humanized antibody #1) produced in Example 1 and topotecan was evaluated.
Specifically, the antitumor effect of the combined use of the anti-CAPRIN-1 antibody and topotecan according to the present invention was studied using NOD-SCID mice in which human-derived cancer cells expressing CAPRIN-1 protein were subcutaneously transplanted. Human breast cancer cells BT474 were subcutaneously transplanted at 2×10^7 cells per mouse as a mixture with Matrigel (Sigma) and allowed to grow until a tumor became approximately 154 to 155 mm^3 to prepare cancer-bearing mice. The cancer cells BT474 express CAPRIN-1 protein on cell membrane surfaces, and the anti-CAPRIN-1 antibodies produced in Example 1 were confirmed to react with a portion of CAPRIN-1 present on the cell membrane surfaces. Each anti-CAPRIN-1 antibody produced in Example 1 was administered at 10 mg/kg once a week, four times in total, to the tail veins of eight cancer-bearing mice described above. To the same mice, a low dose (3 mg/kg) or a high dose (10 mg/kg) of topotecan was administered once every four days, four times in total.
For a comparative control group, the same dose of the same anti-CAPRIN-1 antibody as above was administered once a week to cancer-bearing mice. Furthermore, for another comparative control group, a low dose (3 mg/kg) or a high dose (10 mg/kg) of topotecan was administered to other cancer-bearing mouse individuals at the same administration intervals. Cancer-bearing mice in a non-treatment group were used as negative controls. After the start of administration, the sizes of cancers in the cancer-bearing mice were measured over time using calipers. The tumor volume of each individual was calculated according to a standard method using a calculation formula: (Length of the major axis of the tumor)×(Length of the minor axis of the tumor)^2×0.5, and the average of the treated group was calculated.

| Molecule | tumor volume compared to that at the start of the administration |
| --- | --- |
| CC[C@@]1(O)C(=O)OCc2c1cc1n(c2=O)Cc2cc3c(CN(C)C)c(O)ccc3nc2-1 [topotecan] | increased |

same assay, conditions: topotecan alone, high dose 10 mg/kg once every four days, four times; day 56 after bearing cancer

| Molecule | tumor volume, assuming that the tumor volume of the negative control was 100% |
| --- | --- |
| CC[C@@]1(O)C(=O)OCc2c1cc1n(c2=O)Cc2cc3c(CN(C)C)c(O)ccc3nc2-1 [topotecan] | 16% |

same assay, conditions: topotecan alone, low dose 3 mg/kg once every four days, four times; day 56 after bearing cancer

| Molecule | tumor volume, assuming that the tumor volume of the negative control was 100% |
| --- | --- |
| CC[C@@]1(O)C(=O)OCc2c1cc1n(c2=O)Cc2cc3c(CN(C)C)c(O)ccc3nc2-1 [topotecan] | 33% |

tested on: not given; assay: not given; conditions: platinum-insensitive patient; bevacizumab combined with a chemotherapeutic versus monochemotherapy; cited from earlier work

| Molecule | PFS |
| --- | --- |
| bevacizumab | 6.7 months |

same assay, conditions: platinum-insensitive patient; bevacizumab combined with a chemotherapeutic; cited from earlier work

| Molecule | OS compared with monochemotherapy |
| --- | --- |
| bevacizumab | no significant difference |

biological target: T1, human CAPRIN-1 protein expressed on …; assay: flow cytometry on cancer cells expressing CAPRIN-1; conditions: not given

| binding result | Molecule |
| --- | --- |
| binds | anti-CAPRIN-1 antibody (ag) (antibody, V domains shown) VH: EVQLVESGGGLVQPGGSLRLSCAASGFSLSSHSLGWVRQAPGKGLEWIGDIRSGGSAYYANWAKGRFTISRDNSKNTLYLQMNSLRAEDTAVYFCTRTNGPSDLTNRLDLWGQGTLVTVSS VL: QVLTQSPSSLSASVGDRVTINCQASQSLYNNENLAWFQQKPGKVPKRLIYGASTLASGVSSRFSGSGSGTEFTLTISSLQCEDFAIYYCLGEFSCGSADCFAFGGGTKVEIK |
| binds | anti-CAPRIN-1 antibody (ak) (antibody, V domains shown) VH: EVQLVESGGGLVQPGGSLRLSCAASGFSLSSHSLGWVRQAPGKGLEWIGDIRSGGSAYYANWAKGRFTISRDNSKNTLYLQMNSLRAEDTAVYFCTRTNGPSDLTNRLDLWGQGTLVTVSS VL: EQVLTQSPSSLSASVGDRVTINCQASQSLYNNENLAWFQQKPGKVPKRLIYGASTLASGVSSRFSGSGSGTEFTLTISNLQPEDFAIYYCLGEFSCGSADCFAFGGGTKVEIK |
| binds | anti-CAPRIN-1 antibody (e) (antibody, V domains shown) VH: AVTLDESGGGLQTPGGALSLVCKASGFTFSGYDMLWVRQAPGKGLEWVAGIGSTGGGTDYGAAVKGRATISRDNGQSTVRLQLNNLRAEDTATYYCAKVAGGCNSGYCRDSPGSIDAWGHGTEVIVS VL: AVTQQPASVSANPGETVKITCSGGGSRNYYGWYQQKSPGSVPVTVIYYDDQRPSNIPSRFSGALSGSTSTLTITGVQADDEAVYFCGSADSNTYEGSFGAGTTLTVL |
| binds | anti-CAPRIN-1 antibody (i) (antibody, V domains shown) VH: GAELVRSGASVKMSCKASGYSFTDYNMYWVKQTPGQGLEWIGYIYPGNGGTNYNQKFKGKATLTADTSSSTAYMQISSLTSEDSAVYFCARDYDDGGYAMDYWGQGTTVTVSS VL: DIQMTQSPASLSASVGETVTITCRASGNIHNYLTWYQQKQGKSPQLLVYNAKTLADGVPSRFSGSGSGTQYSLKINRLQPEDFGSYYCQHFWNIPWTFGGGTKLNSR |
| binds | anti-CAPRIN-1 antibody (c) (antibody, V domains shown) VH: AVTLDESGGGLQTPGGGLSLVCKASGFTFSSFDMGWVRQAPGKGLEFVAQINDAGSRTWYATAVKGRATISRDNGQTTVRLQLNNLRAEDTGTYYCTRGSGYVGAGAIDAWGHGTEVIVS VL: AALTQPSSVSANPGETVKITCSGGSGYYGWYQQQKSPGSAPVTVIYQNDKRPSDIPSRFSGSGSGSTNTLTITGVQAEDEAVYFCGRYDSTDSGIFGAGTTLTVL |
| binds | anti-CAPRIN-1 antibody (a) (antibody, V domains shown) VH: AVTLDESGGGLQMSRGGLSLVCKASGFDFSSYQMNWIRQAPGKGLEFVAAINKFGNSTGHGAAVKGRVTISRDNGQSTVRLQLNNLRAEDTAIYFCTKHAYGYCGSGTWCAAGEIDAWGHGTEVIVSS VL: QAASTQPSSVSANPGETVEITCSGGGSYSYGWFQQKSPGSAPVTVIYYNNKRPSDIPSRFSGSKSGSTGTLTITGVQADDEAVYYCGSGDSTDTAVFGAGTTLTVLG |
| binds | anti-CAPRIN-1 antibody (j) (antibody, V domains shown) VH: DAELVKPGASVKISCKASGYTFTDHSIHWVQQKPEQGLEWIGYISPGNGNIKYNEKFKGKATLTADKSSSTAYMQLNSLTSEDSAVYFCKRSLGRGGPYYFDYWGQGTTVTVSS VL: DIVLTQAAPSLPVTPGESVSISCRSSKSLLHSNGNTYLYWFLQRPGQSPQLLIYRMSNLASGVPDRFSGSGSGTAFTLRISRVEAEDVGVYYCMQHREYPVTFGSGPN |
| binds | anti-CAPRIN-1 antibody (o) (antibody, V domains shown) VH: EVQLHQFGAELVKPGASVKISCKASGYTFTDYNMDWVKQSHGKSLEWIGDINPNYDSTSYNQKFKGKATLTVDKSSSTAYMELRSLTSEDTAVYYCARSRSYDYEGFAYWGQGTLVTVSA VL: DIQMTQSPASLSASVGETVTITCRASGNIHNYLAWYQQKQGKSPQLLVYNAKTLADGVPSRFSGSGSGTQYSLKINSLQPEDFGSYYCQHFWSTLTFGAGTKLELKR |
| binds | anti-CAPRIN-1 antibody (d) (antibody, V domains shown) VH: QSLEESGGDLVKPGASLTLTCTASGFSFSGSYYMSWVRQAPGKGLEWIAYIYIGDGVTAYANWAKGRFTISKASSTTVTLQMTSLTAADTATYFCARGNKLWGPGTLVTVSS VL: DVVMTQTPASVEAAVGGTVTIKCQASQSISSYLAWYQQKPGQPPKRLIYDASNLDSGVPSRFKGSGSGTDFTITISDLECADAATYYCQCTAVSSATIYGNAFGGGTEVVVK |
| binds | anti-CAPRIN-1 antibody (z) (antibody, V domains shown) VH: GPDLVKPGASVKISCKASGYSFTAYYMHWVKQSHGKSLEWIGRVNPNNGGTTYNQKFKGKAILTVDKSSSTAYMELRSLTFEDSAVYYCARRIYYGYFDYWGQGTTVTVSS VL: AFFAVSLGQRATISCKASQSVDYDGDSYMNWYQQKPGQPPKLLIYVASNLESGVPARFSGSGSGTDFTLNIHPVEEEDAATYYCQQSNEDPYTFGGGTKLEIKQ |

The remaining lines, values behind:

| Molecule | binding result |
| --- | --- |
| anti-CAPRIN-1 antibody (af) (antibody, V domains shown) VH: EVQLVESGGGLVQPGGSLRLSCAASGFSLSSHSLGWVRQAPGKGLEWIGDIRSGGSAYYANWAKGRFTISRDNSKNTLYLQMNSLRAEDTAVYYCTRTNGPSDLTNRLDLWGQGTLVTVSS VL: QVLTQSPSSLSASVGDRVTINCQASQSLYNNENLAWFQQKPGKVPKRLIYGASTLASGVSSRFSGSGSGTEFTLTISSLQCEDFAIYYCLGEFSCGSADCFAFGGGTKVEIK | binds |
| anti-CAPRIN-1 antibody (ah) (antibody, V domains shown) VH: EVQLVESGGGLVQPGGSLRLSCAASGFSLSSHSLGWVRQAPGKGLEWIGDIRSGGSAYYANWAKGRFTISRDNSKNTLYLQMNSLRAEDTAVYYCTRTNGPSDLTNRLDLWGQGTLVTVSS VL: EQVLTQSPSSLSASVGDRVTINCQASQSLYNNENLAWFQQKPGKVPKRLIYGASTLASGVSSRFSGSGSGTEFTLTISNLQPEDFAIYYCLGEFSCGSADCFAFGGGTKVEIK | binds |
| anti-CAPRIN-1 antibody (aj) (antibody, V domains shown) VH: EVQLVESGGGLVQPGGSLRLSCAASGFSLSSHSLGWVRQAPGKGLEWIGDIRSGGSAYYANWAKGRFTISRDNSKNTLYLQMNSLRAEDTAVYYCTRTNGPSDLTNRLDLWGQGTLVTVSS VL: EIVLTQSPSSLSASVGDRVTINCQASQSLYNNENLAWFQQKPGKVPKRLIYGASTLASGVSSRFSGSGSGTEFTLTISNLQPEDFATYYCLGEFSCGSADCFAFGGGTKVEIK | binds |
| anti-CAPRIN-1 antibody (ai) (antibody, V domains shown) VH: EVQLVESGGGLVQPGGSLRLSCAASGFSLSSHSLGWVRQAPGKGLEWIGDIRSGGSAYYANWAKGRFTISRDNSKNTLYLQMNSLRAEDTAVYFCTRTNGPSDLTNRLDLWGQGTLVTVSS VL: EIVLTQSPSSLSASVGDRVTINCQASQSLYNNENLAWFQQKPGKVPKRLIYGASTLASGVSSRFSGSGSGTEFTLTISNLQPEDFATYYCLGEFSCGSADCFAFGGGTKVEIK | binds |
| anti-CAPRIN-1 antibody (b) (antibody, V domains shown) VH: EQSLVESGGGLVQPGGSLRLSCAASGFSLSSHSLGWVRQAPGKGLEWIGDIRSGGSAYYANWAKGRFTISRDNSKNTLYLQMNSLRAEDTAVYYCTRTNGPSDLTNRLDLWGQGTLVTVSS VL: QVLTQSPSSLSASVGDRVTINCQASQSLYNNENLAWFQQKPGKVPKRLIYGASTLASGVSSRFSGSGSGTEFTLTISSLQCEDFAIYYCLGEFSCGSADCFAFGGGTKVEIK | binds |
